Measured values published in the RNAGym collection of RNA variant scans (doi:10.1021/acssynbio.7b00057).

B1: Pistol ribozyme (parent)
chain: GGGUCGUUGUUCCAUAAUCGCGUGGAUAUGGCACGCAAGUUUCUACCGGGCACCGUAAAUGUCCGACUGGAGCCGUUCGGGCGGCUAUAAACAGACCUCAGGCCCGAAGCGUGGCGGCACCUGCCGCCGGUGGUAAAAAAGAUCGGAAGAGCACACGUCU

Variants of: B1
Test: aptazyme ON/OFF ratio, guanine; higher = stronger switching; co-transcriptional cleavage with and without guanine

| Variant | aptazyme ON/OFF ratio |
| --- | --- |
| U7C U8C G9U U10A U11A C12U C13A | 1.09 |
| U7C U8C G9U U10A U11A C12U C13U | 1.18 |
| U7C U8C G9U U10A U11A C12U C13G | 1.14 |
| U7C U8C G9U U10C U11A C12G | 1.34 |
| U7C U8C G9U U10C U11A C12A | 1.26 |
| U7C U8C G9U U10C U11A C12U | 1.26 |
| U7C U8C G9U U10C C13G | 1.08 |
| U7C U8C G9U U10C C13A | 1.2 |
| U7C U8C G9U U10C C13U | 3.5 |
| U7C U8C G9U U10G U11A | 1.32 |
| U7C U8C G9U U10G U11G | 1.21 |
| U7C U8C G9U U10G U11C | 1.39 |
| U7C U8C G9U U10G U11A C12A C13U | 1.17 |
| U7C U8C G9U U10G U11A C12A C13G | 1.08 |
| U7C U8C G9U U10G U11A C12A C13A | 1.2 |
| U7C U8C G9U U10C C12U | 1.32 |
| U7C U8C G9U U10C C12A | 1.29 |
| U7C U8C G9U U10C C12G | 1.22 |
| U7C U8C G9U U10A U11A C12G C13U | 1.11 |
| U7C U8C G9U U10A U11A C12G C13G | 1.19 |
| U7C U8C G9U U10A U11A C12G C13A | 1.03 |
| U7C U8C G9U U10G C12U C13A | 1.1 |
| U7C U8C G9U U10G C12U C13G | 1.12 |
| U7C U8C G9U U10G C12U C13U | 1.21 |

| Variant | aptazyme ON/OFF ratio |
| --- | --- |
| U7C U8C G9U U10C C12A C13U | 1.07 |
| U7C U8C G9U U10C C12A C13G | 1.09 |
| U7C U8C G9U U10C C12A C13A | 1.17 |
| U7C U8C G9U U10C U11G C12U | 1.22 |
| U7C U8C G9U U10C U11G C12A | 1.16 |
| U7C U8C G9U U10C U11G C12G | 1.16 |
| U7C U8C G9U U10G U11G C12G C13G | 1.06 |
| U7C U8C G9U U10G U11G C12G C13A | 1.1 |
| U7C U8C G9U U10G U11C C12A C13A | 1.18 |
| U7C U8C G9U U10G U11C C12A C13G | 1.07 |
| U7C U8C G9U U10G U11C C12A C13U | 1.1 |
| U7C U8C G9U U10A U11G C12A C13U | 1.12 |
| U7C U8C G9U U10A U11G C12A C13G | 1.05 |
| U7C U8C G9U U10A U11G C12A C13A | 1.19 |
| U7C U8C G9U U10G C12G C13U | 1.09 |
| U7C U8C G9U U10G C12G C13A | 1.09 |
| U7C U8C G9U U10G C12G C13G | 1.07 |
| U7C U8C G9U U10C U11C C12G C13U | 1.05 |
| U7C U8C G9U U10C U11C C12G C13A | 1.05 |
| U7C U8C G9U U10C U11C C12G C13G | 1.18 |
| U7C U8C G9U U10G U11G C12A C13G | 1.09 |
| U7C U8C G9U U10G U11G C12A C13A | 1.01 |
| U7C U8C G9U U10G U11G C12A C13U | 1.1 |
| U7C U8C G9U U10G U11C C13A | 1.29 |

| Variant | aptazyme ON/OFF ratio |
| --- | --- |
| U7C U8C G9U U10G U11C C13U | 1.21 |
| U7C U8C G9U U10G U11C C13G | 1.06 |
| U7C U8C G9U U10A U11A C13A | 1.13 |
| U7C U8C G9U U10A U11A C13G | 1.14 |
| U7C U8C G9U U10A U11A C13U | 1.22 |
| U7C U8C G9U U10C U11C C12A C13A | 1.12 |
| U7C U8C G9U U10C U11C C12A C13G | 1.18 |
| U7C U8C G9U U10C U11C C12A C13U | 1.16 |
| U7C U8C G9U U10G C12A C13G | 1.1 |
| U7C U8C G9U U10G C12A C13A | 1.06 |
| U7C U8C G9U U10G C12A C13U | 1.1 |
| U7C U8C G9U U10A U11C C12A C13G | 1.15 |
| U7C U8C G9U U10A U11C C12A C13A | 1.17 |
| U7C U8C G9U U10A U11C C12A C13U | 1.18 |
| U7C U8C G9U U10A U11A C12U | 1.28 |
| U7C U8C G9U U10A U11A C12A | 1.27 |
| U7C U8C G9U U10A U11A C12G | 1.2 |
| U7C U8C G9U U10C U11C C12A | 1.22 |
| U7C U8C G9U U10C U11C C12G | 1.06 |
| U7C U8C G9U U10C U11C C12U | 1.23 |
| U7C U8C G9U U10C U11A C12A C13A | 1.17 |
| U7C U8C G9U U10C U11A C12A C13U | 1.09 |
| U7C U8C G9U U10C U11A C12A C13G | 1.17 |
| U7C U8C G9U U10A U11G C12A | 1.2 |

| Variant | aptazyme ON/OFF ratio |
| --- | --- |
| U7C U8C G9U U10A U11G C12G | 1.15 |
| U7C U8C G9U U10A U11G C12U | 1.11 |
| U7C U8C G9U U10C C12G C13A | 1.11 |
| U7C U8C G9U U10C C12G C13G | 1.11 |
| U7C U8C G9U U10C C12G C13U | 1.13 |
| U7C U8C G9U U10C U11A C12G C13U | 1.09 |
| U7C U8C G9U U10C U11A C12G C13G | 1.15 |
| U7C U8C G9U U10C U11A C12G C13A | 1.13 |
| U7C U8C G9U U10C U11C C12U C13U | 1.08 |
| U7C U8C G9U U10C U11C C12U C13G | 1.1 |
| U7C U8C G9U U10C U11C C12U C13A | 1.08 |
| U7C U8C G9U U10A U11G C12G C13G | 1.08 |
| U7C U8C G9U U10A U11G C12G C13A | 1.19 |
| U7C U8C G9U U10A U11G C12G C13U | 1.07 |
| U7C U8C G9U U10G U11C C12G C13G | 1.17 |
| U7C U8C G9U U10G U11C C12G C13A | 1.08 |
| U7C U8C G9U U10G U11C C12G C13U | 1.1 |
| U7C U8C G9U U10G U11A C12U C13U | 1.21 |
| U7C U8C G9U U10G U11A C12U C13G | 1.12 |
| U7C U8C G9U U10G U11A C12U C13A | 1.1 |
| U7C U8C G9U U10G U11C C12U | 1.25 |
| U7C U8C G9U U10G U11C C12A | 1.17 |
| U7C U8C G9U U10G U11C C12G | 1.24 |
| U7C U8C G9U U10A U11A C12A C13A | 1.12 |

| Variant | aptazyme ON/OFF ratio |
| --- | --- |
| U7C U8C G9U U10A U11A C12A C13U | 1.1 |
| U7C U8C G9U U10A U11A C12A C13G | 1.11 |
| U7C U8C G9U U10A U11C | 1.16 |
| U7C U8C G9U U10A U11G | 1.34 |
| U7C U8C G9U U10A U11C C12A | 1.19 |
| U7C U8C G9U U10A U11C C12U | 1.19 |
| U7C U8C G9U U10A U11C C12G | 1.36 |
| U7C U8C G9U U10C U11G C12U C13G | 1.19 |
| U7C U8C G9U U10C U11G C12U C13U | 1.21 |
| U7C U8C G9U U10C U11G C12U C13A | 1.09 |
| U7C U8C G9U U10C U11G C12A C13A | 1.11 |
| U7C U8C G9U U10C U11G C12A C13U | 1.12 |
| U7C U8C G9U U10C U11G C12A C13G | 1.11 |
| U7C U8C G9U U10C U11C C13G | 1.1 |
| U7C U8C G9U U10C U11C C13A | 1.02 |
| U7C U8C G9U U10C U11C C13U | 1.04 |
| U7C U8C G9U U10G U11A C13A | 1.18 |
| U7C U8C G9U U10G U11A C13G | 1.1 |
| U7C U8C G9U U10G U11A C13U | 1.17 |
| U7C U8C G9U U10G U11G C12A | 1.13 |
| U7C U8C G9U U10G U11G C12G | 1.1 |
| U7C U8C G9U U10G U11A C12G C13G | 1.18 |
| U7C U8C G9U U10G U11A C12G C13A | 1.06 |
| U7C U8C G9U U10G U11A C12G C13U | 1.08 |

| Variant | aptazyme ON/OFF ratio |
| --- | --- |
| U7C U8C G9U U10A U11C C12G C13A | 1.17 |
| U7C U8C G9U U10A U11C C12G C13U | 1.15 |
| U7C U8C G9U U10A U11C C12G C13G | 1.19 |
| U7C U8C G9U U10A U11G C13U | 1.31 |
| U7C U8C G9U U10A U11G C13G | 1.11 |
| U7C U8C G9U U10A U11G C13A | 1.12 |
| U7C U8C G9U U10C U11G C13A | 1.07 |
| U7C U8C G9U U10C U11G C13G | 1.3 |
| U7C U8C G9U U10C U11G C13U | 1.29 |
| U7C U8C G9U U10G C13G | 1.12 |
| U7C U8C G9U U10G C13U | 1.39 |
| U7C U8C G9U U10G C13A | 1.21 |
| U7C U8C G9U U10G U11C C12U C13G | 1.09 |
| U7C U8C G9U U10G U11C C12U C13A | 1.12 |
| U7C U8C G9U U10G U11C C12U C13U | 1.18 |
| U7C U8C G9U U10G U11A C12G | 1.25 |
| U7C U8C G9U U10G U11A C12U | 1.17 |
| U7C U8C G9U U10G U11A C12A | 1.37 |
| U7C U8C G9U U10G C12G | 1.15 |
| U7C U8C G9U U10G C12U | 1.33 |
| U7C U8C G9U U10G C12A | 1.22 |
| U7C U8C G9U U10A U11C C13G | 1.07 |
| U7C U8C G9U U10A U11C C13U | 1.1 |
| U7C U8C G9U U10A U11C C13A | 1.15 |

| Variant | aptazyme ON/OFF ratio |
| --- | --- |
| U7C U8C G9U U10A U11G C12U C13U | 1.14 |
| U7C U8C G9U U10A U11G C12U C13G | 1.13 |
| U7C U8C G9U U10A U11G C12U C13A | 1.06 |
| U7C U8C G9U U10C U11A C12U C13G | 1.14 |
| U7C U8C G9U U10C U11A C12U C13A | 1.13 |
| U7C U8C G9U U10C U11A C12U C13U | 1.09 |
| U7C U8C G9U U10C U11A C13G | 1.14 |
| U7C U8C G9U U10C U11A C13A | 1.2 |
| U7C U8C G9U U10C U11A C13U | 1.23 |
| U7C U8C G9U U10C U11A | 2.44 |
| U7C U8C G9U U10C U11C | 1.3 |
| U7C U8C G9U U10C U11G | 1.32 |
| U7C U8C G9U U10A U11C C12U C13U | 1.15 |
| U7C U8C G9U U10A U11C C12U C13A | 1.16 |
| U7C U8C G9U U10A U11C C12U C13G | 1.14 |
| U7C U8C G9U U10C U11G C12G C13A | 1.14 |
| U7C U8C G9U U10C U11G C12G C13U | 1.08 |
| U7C U8C G9U U10C U11G C12G C13G | 1.09 |
| U7C U8C G9U U10C | 2.52 |
| U7C U8C G9U U10G | 1.42 |
| U7C U8C G9U U10C C12U C13G | 1.1 |
| U7C U8C G9U U10C C12U C13U | 1.28 |
| U7C U8C G9U U10C C12U C13A | 1.12 |
